{"source": "patent US7294496B1", "about": "“Cloned human lysophospholipase” (The Regents of the University of California, priority 2000, dated 2007)", "molecules": {"B1": {"name": "Human Recombinant cPLA2: human recombinant cytosolic Ca2+-dependent phospholipase A2, gift from Lilly Laboratories (protein, UniProt P47712 1-749, looked up)", "Cytosolic phospholipase A2": "MSFIDPYQHIIVEHQYSHKFTVVVLRATKVTKGAFGDMLDTPDPYVELFISTTPDSRKRTRHFNNDINPVWNETFEFILDPNQENVLEITLMDANYVMDETLGTATFTVSSMKVGEKKEVPFIFNQVTEMVLEMSLEVCSCPDLRFSMALCDQEKTFRQQRKEHIRESMKKLLGPKNSEGLHSARDVPVVAILGSGGGFRAMVGFSGVMKALYESGILDCATYVAGLSGSTWYMSTLYSHPDFPEKGPEEINEELMKNVSHNPLLLLTPQKVKRYVESLWKKKSSGQPVTFTDIFGMLIGETLIHNRMNTTLSSLKEKVNTAQCPLPLFTCLHVKPDVSELMFADWVEFSPYEIGMAKYGTFMAPDLFGSKFFMGTVVKKYEENPLHFLMGVWGSAFSILFNRVLGVSGSQSRGSTMEEELENITTKHIVSNDSSDSDDESHEPKGTENEDAGSDYQSDNQASWIHRMIMALVSDSALFNTREGRAGKVHNFMLGLNLNTSYPLSPLSDFATQDSFDDDELDAAVADPDEFERIYEPLDVKSKKIHVVDSGLTFNLPYPLILRPQRGVDLIISFDFSARPSDSSPPFKELLLAEKWAKMNKLPFPKIDPYVFDREGLKECYVFKPKNPDMEKDCPTIIHFVLANINFRKYRAPGVPRETEEEKEIADFDIFDDPESPFSTFNFQYPNQAFKRLHDLMHFNTLNNIDVIKEAMVESIEYRRQNPSRCSVSLSNVEARRFFNKEFLSKPKA"}, "B2": {"name": "Rat brain iPLA2: Ca2+-independent phospholipase A2 purified from rat brain (protein, UniProt P97570 1-807, looked up)", "85/88 kDa calcium-independent …": "MQFFGRLVNTLSSVTNLFSNPFRVKEVSLADYASSERVREEGQLILLQNASNRTWDCVLVSPRNPQSGFRLFQLESEADALVNFQQYSSQLPPFYESSVQVLHVEVLQHLTDLIRNHPSWTVTHLAVELGIRECFHHSRIISCANSTENEEGCTPLHLACRKGDSEILVELVQYCHAQMDVTDNKGETAFHYAVQGDNPQVLQLLGKNASAGLNQVNNQGLTPLHLACQMGKQEMVRVLLLCNARCNIMGPGGFPIHTAMKFSQKGCAEMIISMDSNQIHSKDPRYGASPLHWAKNAEMARMLLKRGCDVDSTSASGNTALHVAVTRNRFDCVMVLLTYGANAGARGEHGNTPLHLAMSKDNMEMVKALIVFGAEVDTPNDFGETPAFIASKISKLITRKALLTLLKTVGADYHFPFIQGVSTEQSSAAGPHPFFSLDRTQPPTISLNNLELQDLMPVSRARKPAFILSSMRDEKRSHDHLLCLDGGGVKGLVIIQLLIAIEKASGVATKDLFDWVAGTSTGGILALAILHSKSMAYMRGVYFRMKDEVFRGSRPYESGPLEEFLKREFGEHTKMTDVKKPKVMLTGTLSDRQPAELHLFRNYDAPEAVREPRCTPNINLKPPTQPADQLVWRAARSSGAAPTYFRPNGRFLDGGLLANNPTLDAMTEIHEYNQDMIRKGQGNKVKKLSIVVSLGTGKSPQVPVTCVDVFRPSNPWELAKTVFGAKELGKMVVDCCTDPDGRAVDRARAWCEMVGIQYFRLNPQLGSDIMLDEVSDAVLVNALWETEVYIYEHREEFQKLVQLLLSP"}}, "type_in_all_cases": "biochemical", "key": {"[1]": {"assay": "PLA2 activity assay toward plasmenylcholine", "conditions": "for Activity: 100 mM Hepes, 2 mM DTT", "experimental": "(§1) The protein concentration was determined by the Bio-Rad protein assay, using bovine serum albumin (BSA) as standard. Protein purity was examined using 12% SDS-PAGE and Coomassie blue staining. LysoPLA activity was measured at 40° C. in the assay buier containing LysoPC, 100 mM Tris-HCl (pH 8.0) and 10 mM LMe. Cold 1-palmitoyl-sn-glycero-3-phosphorylcholine (125 μM, unless indicated otherwise) was mixed with 1-[14 C]palmitoyl-sn-glycero-3-phosphorylcholine (100,000 cpm) in a total volume of 0.5 ml. The assay was initiated by adding an aliquot of enzyme solution to the substrate mixture and incubating for the desired time. The released fatty acid was extracted by the modified Dole method and then quantified by scintillation counting. The PLA2 activity assay was carried out, using various ^14C-labeled phospholipid substrates under various conditions as given in the text. The rat brain iPLA2 was purified as described elsewhere (H. C. Yang et al., manuscript in preparation incorporated herein). Human recombinant cPLA2 was a gift from Drs. J. D. Sharp and R. M. Kramer at Lilly Laboratories. 1-[^14C]Palmitoyl-sn-glycero-3-phosphorylcholine and 1-palmitoyl-2-[1-^14C]palmitoyl-sn-glycerol-3-phosphorylcholine were purchased from Amersham. 1-Palmitoyl-2-[1-^14C]arachidonoyl-sn-glycerol-3-phosphorylcholine was purchased from DuPont-NEN. All unlabeled phospholipids were purchased from Avanti Polar Lipids. Triton X-100 (TX-100) and PIP2 were obtained from CalBiochem.\nThe sn-2 labeled PlsCho (plasmenylcholine or 1-O— (Z)-1P-alkenyl-2-arachidonoyl-sn-glycero-3-phosphocholine) was synthesized as follows. A total of 4 μmol [1-14C]arachidonic acid (from NEN, with specific activity […]) was diluted 10 times with cold arachidonic acid in 250 μl distilled methylene chloride (Fisher Scientific). To this 0.04 mmol p(N,N-dimethyl)amino pyridine (Aldrich) and 0.08 mmol 1,3-dicyclohexyl carbodiimide (Aldrich) were added to yield the arachidonoyl anhydride upon 1 h of stirring. Lysoplasmenylcholine (0.06 mmol, from Serdary) dissolved in 200 μl methylene chloride and 50 μl pyridine (Fisher Scienticc) was added to the arachidonoyl anhydride solution with 0.03 μmol dimethylaminopyridine and left stirring for 8 h. The reaction progress was monitored by thin layer chromatography (Merck) using a mobile phase of chloroform:methanol:triethyl amine:water (65:30:1.5:3.5), and retardation factors were 0.6 and 0.2 for PlsCho and LysoPlsCho, respectively. The separation of the product was carried out by preparative layer chromatography (Merck) in the above mobile system. The reaction yielded a total of 3.6 mg (7.7 μmol) of radiolabeled PlsCho (specific activity 0.18 μCi/μmol) by quantitative phosphate analysis.\n(§2) When we first purified the mouse LysoPLA from P388D1 cells, no other enzymatic activities (PLA1, PLA2, acyltransferase, transacylase and esterase) were found. Therefore, it appears to be a LysoPL-specific LysoPLA. Similar results were obtained for the rat LysoPLA and the relative rates towards different LysoPL substrates were reported [Sugimoto et al., (1996) J. Biol. Chem. 271, 7705-11]. However, a recently sequenced rabbit enzyme that shares high sequence homology (approx. 97%) to the rat/mouse LysoPLA was reported to have both PLA2 and LysoPLA activities [Portilla, et al., […] J. Am. Soc.Nephrol. 9, 1178-86]. The specific activities, however, were only 10 nmol/min/mg for PLA2 activity and 20 nmol/min/mg for LysoPLA activity. The PLA2 activity was also reported to be selective for PlsCho substrate with arachidonic acid at the sn2 position. To determine whether hLysoPLA also expresses PLA2 activity, we have explored its ability to hydrolyze arachidonic acid labeled PlsCho as well as other phospholipid substrates under a variety of conditions."}, "[2]": {"assay": "PLA2 activity assay toward PAPC", "conditions": "100 mM Hepes, 2 mM DTT", "experimental": "as §1, §2"}, "[3]": {"assay": "PLA2 activity assay toward DPPC", "conditions": "DPPC/TX-100 mixed micelles (100 μM:400 μM); 100 mM Hepes, pH 7.5, 2 mM DTT, 5 mM EDTA", "experimental": "as §1, §2"}}, "data": [{"molecule": "B1", "values": [{"measurement": "Activity", "setting": "[1]; PisCho/PIP2/TX-100 mixed micelles (100 μM:3 μM:600 μM), pH 7.5, 80 μM Ca2+, 0.1 mg/ml BSA", "value": "13.58 ± 0.05", "unit": "µmol/min/mg"}, {"measurement": "activity toward PlsCho relative to activity toward PAPC", "setting": "[1]; in the presence of 3 mol % PIP2, same conditions", "value": "about 60%"}, {"measurement": "Activity", "setting": "[2]; PAPC/PIP2/TX-100 mixed micelles (97 μM:3 μM:400 μM), pH 7.5, 80 μM Ca2+, 0.1 mg/ml BSA", "value": "21.81 ± 0.09", "unit": "µmol/min/mg"}]}, {"molecule": "B2", "values": [{"measurement": "Activity", "setting": "[3]", "value": "5.6 ± 0.2", "unit": "µmol/min/mg"}, {"measurement": "Activity", "setting": "[1]; PisCho/TX-100 mixed micelles (100 μM:600 μM), pH 7.5, 5 mM EDTA", "value": "0.53 ± 0.03", "unit": "µmol/min/mg"}, {"measurement": "fold lower activity toward PlsCho than toward DPPC", "setting": "[1]; TX-100 mixed micelles", "value": 10, "unit": "fold"}, {"measurement": "fold lower activity toward PlsCho than toward PAPC", "setting": "[1]; TX-100 mixed micelles", "value": 4, "unit": "fold"}, {"measurement": "Activity", "setting": "[2]; PAPC/TX-100 mixed micelles (100 μM:400 μM), pH 7.5, 5 mM EDTA", "value": "2.0 ± 0.04", "unit": "µmol/min/mg"}]}]}
